Laboratory results from US10947289B2, “Glyco-modified atrial natriuretic peptide” (priority 2013, dated 2021).

Test: Detection of test substance in rat plasma by LC-MS/MS (Test Example 3)
Assay type: in vivo
Conditions: rat plasma, 100 nmol/kg i.v., LC-MS/MS; time at which the test substance was finally detected
Procedure: Before the administration and 15, 30, 60, 90, 120, 180, and 240 minutes after the administration, blood was sampled (200 μL/sampling) over time from the jugular vein. The blood samples were immediately left on ice.
The collected blood samples were centrifuged at 5000 rpm at 4° C. for 5 minutes by use of a centrifuge (Sigma 4K15, rotor: Nr12130-H). The separated plasma samples were divided into two types (samples for PK measurement and for cGMP measurement) and stored at −80° C. until measurement.
An internal standard (20 μL (500 nM) of a stable isotope of hANP) and an acetic acid mixed solvent (AcOH/distilled water/DMSO=5/3/2, v/v/v) were added to 50 μL of each rat plasma sample prepared in (1) and then mixed therewith. The mixture was transferred to Amicon Ultra-0.5 50K (Millipore Corp., MA) and centrifuged at 14000 rpm at 15° C. for 30 minutes. The obtained filtrate was transferred to Amicon Ultra-0.5 3K (Millipore Corp., MA) and centrifuged again under the aforementioned conditions. The solution remaining on the filter was recovered and transferred to a 96-well deep well plate. The content of the test substance was measured by LC-MS/MS (LC: Shimadzu LC-10ADVP (Shimadzu Corp.), MS/MS: API 4000 QTrap (AB SCIEX)) to calculate the concentration in plasma. The time at which the test substance was finally detected is shown in the rightmost column of Table 2.

SMILES | Maximum time of detection after administration
CC[C@H](C)[C@@H]1NC(=O)[C@H](CCCNC(=N)N)NC(=O)[C@H](CC(=O)O)NC(=O)[C@H](CCSC)NC(=O)[C@H](CCCNC(=N)N)NC(=O)CNC(=O)CNC(=O)[C@H](Cc2ccccc2)NC(=O)[C@@H](NC(=O)[C@H](CO)NC(=O)[C@H](CO)NC(=O)[C@H](CCCNC(=N)N)NC(=O)[C@H](CCCNC(=N)N)NC(=O)[C@H](CC(C)C)NC(=O)[C@H](CO)NC(=O)CO[C@@H]2O[C@H](CO)[C@@H](O[C@@H]3O[C@H](CO)[C@@H](O[C@@H]4O[C@H](CO[C@H]5O[C@H](CO)[C@@H](O)[C@H](O)[C@@H]5O[C@@H]5O[C@H](CO)[C@@H](O[C@@H]6O[C@H](CO)[C@H](O)[C@H](O)[C@H]6O)[C@H](O)[C@H]5NC(C)=O)[C@@H](O)[C@H](O[C@H]5O[C@H](CO)[C@@H](O)[C@H](O)[C@@H]5O[C@@H]5O[C@H](CO)[C@@H](O[C@@H]6O[C@H](CO)[C@H](O)[C@H](O)[C@H]6O)[C@H](O)[C@H]5NC(C)=O)[C@@H]4O)[C@H](O)[C@H]3NC(C)=O)[C@H](O)[C@H]2NC(C)=O)CSSC[C@@H](C(=O)N[C@@H](CC(N)=O)C(=O)N[C@@H](CO)C(=O)N[C@@H](Cc2ccccc2)C(=O)N[C@@H](CCCNC(=N)N)C(=O)N[C@@H](Cc2ccc(O)cc2)C(=O)O)NC(=O)CNC(=O)[C@H](CC(C)C)NC(=O)CNC(=O)[C@H](CO)NC(=O)[C@H](CCC(N)=O)NC(=O)[C@H](C)NC(=O)CNC1=O [Compound 2-10, AG(9)-hANP(1-28)] | 1.5 h
CC[C@H](C)[C@@H]1NC(=O)[C@H](CCCNC(=N)N)NC(=O)[C@H](CC(=O)O)NC(=O)[C@H](CCSC)NC(=O)[C@H](CCCNC(=N)N)NC(=O)CNC(=O)CNC(=O)[C@H](Cc2ccccc2)NC(=O)[C@@H](NC(=O)[C@H](CO)NC(=O)[C@H](CO)NC(=O)[C@H](CCCNC(=N)N)NC(=O)[C@H](CCCNC(=N)N)NC(=O)[C@H](CC(C)C)NC(=O)[C@H](CO)NC(=O)CCOCCOCCOCCOCCNC(=O)CO[C@@H]2O[C@H](CO)[C@@H](O[C@@H]3O[C@H](CO)[C@@H](O[C@@H]4O[C@H](CO[C@H]5O[C@H](CO)[C@@H](O)[C@H](O)[C@@H]5O[C@@H]5O[C@H](CO)[C@@H](O[C@@H]6O[C@H](CO[C@]7(C(=O)O)C[C@H](O)[C@@H](NC(C)=O)[C@H]([C@H](O)[C@H](O)CO)O7)[C@H](O)[C@H](O)[C@H]6O)[C@H](O)[C@H]5NC(C)=O)[C@@H](O)[C@H](O[C@H]5O[C@H](CO)[C@@H](O)[C@H](O)[C@@H]5O[C@@H]5O[C@H](CO)[C@@H](O[C@@H]6O[C@H](CO[C@]7(C(=O)O)C[C@H](O)[C@@H](NC(C)=O)[C@H]([C@H](O)[C@H](O)CO)O7)[C@H](O)[C@H](O)[C@H]6O)[C@H](O)[C@H]5NC(C)=O)[C@@H]4O)[C@H](O)[C@H]3NC(C)=O)[C@H](O)[C@H]2NC(C)=O)CSSC[C@@H](C(=O)N[C@@H](CC(N)=O)C(=O)N[C@@H](CO)C(=O)N[C@@H](Cc2ccccc2)C(=O)N[C@@H](CCCNC(=N)N)C(=O)N[C@@H](Cc2ccc(O)cc2)C(=O)O)NC(=O)CNC(=O)[C@H](CC(C)C)NC(=O)CNC(=O)[C@H](CO)NC(=O)[C@H](CCC(N)=O)NC(=O)[C@H](C)NC(=O)CNC1=O [Compound 2-29, SG-PEG(3)-hANP(1-28)] | 2 h
CC[C@H](C)[C@@H]1NC(=O)[C@H](CCCNC(=N)N)NC(=O)[C@H](CC(=O)O)NC(=O)[C@H](CCSC)NC(=O)[C@H](CCCNC(=N)N)NC(=O)CNC(=O)CNC(=O)[C@H](Cc2ccccc2)NC(=O)[C@@H](NC(=O)[C@H](CO)NC(=O)[C@H](CO)NC(=O)[C@H](CCCNC(=N)N)NC(=O)[C@H](CCCNC(=N)N)NC(=O)[C@H](CC(C)C)NC(=O)[C@H](CO)NC(=O)CO[C@@H]2O[C@H](CO)[C@@H](O[C@@H]3O[C@H](CO)[C@@H](O[C@@H]4O[C@H](CO[C@H]5O[C@H](CO)[C@@H](O)[C@H](O)[C@@H]5O[C@@H]5O[C@H](CO)[C@@H](O)[C@H](O)[C@H]5NC(C)=O)[C@@H](O)[C@H](O[C@H]5O[C@H](CO)[C@@H](O)[C@H](O)[C@@H]5O[C@@H]5O[C@H](CO)[C@@H](O)[C@H](O)[C@H]5NC(C)=O)[C@@H]4O)[C@H](O)[C@H]3NC(C)=O)[C@H](O)[C@H]2NC(C)=O)CSSC[C@@H](C(=O)N[C@@H](CC(N)=O)C(=O)N[C@@H](CO)C(=O)N[C@@H](Cc2ccccc2)C(=O)N[C@@H](CCCNC(=N)N)C(=O)N[C@@H](Cc2ccc(O)cc2)C(=O)O)NC(=O)CNC(=O)[C@H](CC(C)C)NC(=O)CNC(=O)[C@H](CO)NC(=O)[C@H](CCC(N)=O)NC(=O)[C@H](C)NC(=O)CNC1=O [Compound 2-11, AG(7)-hANP(1-28)] | 2 h
CC[C@H](C)[C@@H]1NC(=O)[C@H](CCCNC(=N)N)NC(=O)[C@H](CC(=O)O)NC(=O)[C@H](CCSC)NC(=O)[C@H](CCCNC(=N)N)NC(=O)CNC(=O)CNC(=O)[C@H](Cc2ccccc2)NC(=O)[C@@H](NC(=O)[C@H](CO)NC(=O)[C@H](CO)NC(=O)[C@H](CCCNC(=N)N)NC(=O)[C@H](CCCNC(=N)N)NC(=O)[C@H](CC(C)C)NC(=O)[C@H](CO)NC(=O)CCOCCOCCOCCOCCOCCOCCOCCOCCOCCOCCOCCOCCNC(=O)CO[C@@H]2O[C@H](CO)[C@@H](O[C@@H]3O[C@H](CO)[C@@H](O[C@@H]4O[C@H](CO[C@H]5O[C@H](CO)[C@@H](O)[C@H](O)[C@@H]5O[C@@H]5O[C@H](CO)[C@@H](O[C@@H]6O[C@H](CO[C@]7(C(=O)O)C[C@H](O)[C@@H](NC(C)=O)[C@H]([C@H](O)[C@H](O)CO)O7)[C@H](O)[C@H](O)[C@H]6O)[C@H](O)[C@H]5NC(C)=O)[C@@H](O)[C@H](O[C@H]5O[C@H](CO)[C@@H](O)[C@H](O)[C@@H]5O[C@@H]5O[C@H](CO)[C@@H](O[C@@H]6O[C@H](CO[C@]7(C(=O)O)C[C@H](O)[C@@H](NC(C)=O)[C@H]([C@H](O)[C@H](O)CO)O7)[C@H](O)[C@H](O)[C@H]6O)[C@H](O)[C@H]5NC(C)=O)[C@@H]4O)[C@H](O)[C@H]3NC(C)=O)[C@H](O)[C@H]2NC(C)=O)CSSC[C@@H](C(=O)N[C@@H](CC(N)=O)C(=O)N[C@@H](CO)C(=O)N[C@@H](Cc2ccccc2)C(=O)N[C@@H](CCCNC(=N)N)C(=O)N[C@@H](Cc2ccc(O)cc2)C(=O)O)NC(=O)CNC(=O)[C@H](CC(C)C)NC(=O)CNC(=O)[C@H](CO)NC(=O)[C@H](CCC(N)=O)NC(=O)[C@H](C)NC(=O)CNC1=O [Compound 2-30, SG-PEG(11)-hANP(1-28)] | 4 h
